Here are results for 16 compounds from patent US12516145B2 (priority 2019, dated 2026).

The term pKa denotes the pH at which an ionisable group is half protonated.

Data set [1] concerns HeLa cells. The data set is described as follows: CellTilter-Blue cell viability assay of KLA based materials (Example 1). More on the design: species or system human. The note with it: even at 100 μM with respect to peptide, 72 hours, 37 °C. How it is done: Hela cells were purchased from ATCC. Cells were cultured at 37° C. under 5% CO2 in phenol-red containing Dulbecco's Modified Eagle Medium (DMEM; Gibco Life Tech., cat. #11960-044) supplemented with 10% fetal bovine serum (Omega Scientific, cat. #11140-050), sodium pyruvate (Gibco Life Tech., cat. #35050-061), L-glutamine (Gibco Life Tech., cat. #35050-061), and the antibiotics penicillin/streptomycin (Corning Cellgro, cat. #30-002-C1). Cells were grown in T75 culture flasks and subcultured at ˜75-80% confluency.
The cytotoxicity of materials was assessed using the CellTilter-Blue assay. HeLa cells were plated at a density of 5000 cells per well in a 96 well plate 18 hours prior to treatment. Materials were dissolved in DPBS at the desired concentration and added to the wells along with a 10% DMSO positive control. Cells were incubated for 72 hours at 37° C. Note that the concentration of all the materials is with respect to the peptide concentration to ensure that all peptides and polymers are fairly compared with respect to their therapeutic components. The media was removed and 80 μL of new media without phenol red was added followed by adding 20 μL of CellTilter-Blue reagent. The cells were incubated for 3 hours at 37° C. The fluorescence was measured at 560 nm excitation and 590 nm emission wavelength.

In data set [2] the test system is trypsin. The data set is described as follows: Trypsin-induced cleavage (proteolytic resistance) by RP-HPLC. Format: in vitro ADME. The note with it: isolated enzyme trypsin; trypsin 0.1 μM, 200 μM peptide, PBS pH 7.4, 37 °C; read-out: peptide cleaved by trypsin within 1 h. The procedure: For protease-triggered cleavage experiments, the molar ratio of trypsin to peptide was set to 1:2000. Moreover, the temperature was set to 37° C. to match the body temperature. For example, poly[(KLAAm10-co-DMA30)-b-(DAAm70-co-DMA30)](NP1, 0.9 mg, 0.2 μmol with respect to peptides, 2000 equiv.) was dissolved in 1 ml of DPBS solution. […] During the cleavage, aliquots were taken for HPLC analysis at predetermined time points.

For data set [3] the following is noted: cited from earlier work.
The conditions of data set [4]: amine groups; cited from earlier work.
Data set [5] relates to thermolysin. The data set is described as follows: thermolysin in DPBS solution, molar ratio of thermolysin to peptide 1:300. The note with it: 55° C.
Data set [6] has as its system trypsin. The data set is described as follows: trypsin (0.1 μM) in PBS buffer (pH=7.4), molar ratio of trypsin to peptide 1:2000. The note with it: 37° C.
Data set [7] can be described thus: Dynamic light scattering (hydrodynamic size). The class given is physicochemical. The note with it: for Dh: hydrodynamic diameter by DLS, photo-PISA at solids content of 15 wt. %; for Rh: hydrodynamic radius by DLS; for hydrodynamic diameter / size by DLS: in water (DIW).
Description: (§2) Dynamic Light Scattering (DLS) and Zeta Potential Analysis: DLS and zeta potential analyses were conducted at room temperature on a Zetasizer Nano-ZS (Malvern). The laser for DLS was at a wavelength of 633 nm.
A further data set is described as follows: Zeta potential analysis. Format: physicochemical. The note with it: room temperature.
Data set [8] can be described thus: Transmission electron microscopy (particle size). The class given is physicochemical. The note with it: for Rcore: estimated by TEM analysis.
Description: Dry-State Transmission Electron Microscopy (TEM): Twenty microliters of samples were applied onto a 400 mesh carbon grids (Ted Pella, INC.). The grids were observed on a Hitachi HT 7700 microscope operating at 120 kV. The images were recorded with a slow-scan charge-coupled device (CCD) camera (Veleta 2k×2k).
For data set [9], the target named is T1, thermolysin (Bacillus thermoproteolyticus, UniProt P00800). The note with it: for morphology change of micelles after treatment with thermolysin: TEM and DLS, spherical micelles before treatment. The procedure: Transmission Electron Microscope (TEM): Twenty microliters of sample were applied onto a 400 mesh carbon grids (Ted Pella, INC.). The grids were observed on a Hitachi HT 7700 microscope operating at 120 kV. The images were recorded with a slow-scan charge-coupled device (CCD) camera (Veleta 2k×2k).
Dynamic Light Scattering (DLS): DLS analysis was conducted at room temperature on a Zetasizer Nano-ZS (Malvern). The laser for DLS was at a wavelength of 633 nm.
(§1) For enzyme-triggered cleavage experiments, the molar ratio of thermolysin to peptide was set to 1:300. Moreover, the temperature was set to 55° C. to achieve the optimal activity of thermolysin. For example, poly(PepAm21-co-DMA24) (P4, 1 mg, 0.87 μmol with respect to peptides, 300 equiv.) was dissolved in 1 ml of DPBS solution. Then thermolysin (0.1 mg, 2.9 nmol, 1 equiv.) was added into the polymer solution which was stirred in a preheated oil bath at 55° C. In the case of control experiments which involved using deactivated thermolysin, EDTA (100 equiv. to thermolysin) was utilized to capture the zinc and calcium ions, resulting in denaturing of thermolysin.

In data set [10] the test system is HeLa cells. The data set is described as follows: Flow cytometry for uptake ability in HeLa cells (Example 1). Format: cell-based, human. The note with it: rhodamine B-labeled, 0.25 μM with respect to dye, 24 hours. How it is done: Flow Cytometry: The cell uptake study was analyzed via flow cytometry using a BD FacsAria Ilu 4-Laser flow cytometer (Becton Dickinson Inc., USA). Mean fluorescence intensity and PE-A-histogram data was prepared for presentation using FlowJo v10.
For cellular uptake measurements, HeLa cells were plated in 12-well plates at a density of 1,000,000 per well and incubated for 24 hours in a 5% CO2 atmosphere at 37° C. 500 μL of 0.25 μM (with respect to rhodamine) KLA peptide, poly(KLAAm25-co-DMA75), poly(KLAAm25-co-DMA25), and poly(KLAAm10) in 10% FBS DMEM media without phenol red were incubated with the cells for 24 hours respectively. After triple washing with DPBS, 500 μL of 0.25% Trypsin-EDTA was added to each well for 10 min at 37° C. Cells were fixed with a 4% paraformaldehyde solution for 15 min at room temperature.
(In flow cytometry, cells or beads pass a laser one at a time.)

For data set [11], the target named is T1, thermolysin. The note with it: thermolysin 1/300 equiv. to peptides, 55 °C, DPBS, HPLC. How it is done:
Analytical High-Performance Liquid Chromatography (HPLC): Analytical HPLC analysis of peptides was performed on a Jupiter 4μ Proteo 90A Phenomenex column (150×4.60 mm) using a Hitachi-Elite LaChrom L-2130 pump equipped with UV-Vis detector (Hitachi-Elite LaChrom L2420).
as §1

Data set [12] has as its system mitochondrial membrane potential of HeLa cells. The data set is described as follows: Mitochondria membrane potential of HeLa cells with JC-1 probe. The class given is cell-based, human. The note with it: 2 μM JC-1, excitation 488 nm, NP5 even after 30 min incubation. The procedure: HeLa cells were plated in 4-well, glass bottom dishes at 30,000 cells per well in 500 μL medium. […] The cells were stained with 2 μM of JC-1 at 37° C. for 15 minutes, washed with PBS to remove any membrane-bound, non-internalized fluorophores, and returned to complete medium. For the positive control group, the cells were incubated with 50 μM CCCP and 2 μM of JC-1 probe in DPBS solution simultaneously for 15 min. Before the confocal observation, 1 drop of Hoechst 33342 dye was added to stain the nuclei. Confocal microscope was employed to observe the fluorescence of JC-1 monomer, J-aggregates and Hoechst dye.

Data set [13] concerns HeLa cells. The data set is described as follows: CellTiter-Blue cell viability assay of nanoparticles (Example 2). The class given is cell-based, human. The note with it: 72 h; for cytotoxicity in HeLa cells: 37 °C, concentration with respect to total KLA peptide content. The procedure: Fluorescence Measurement: CellTiter-Blue® fluorescence measurements were recorded using a Perkin Elmer EnSpire multimode Plate Reader.
HeLa cells were grown in Dulbecco's modified Eagle medium (DMEM) supplemented with 10% fetal bovine serum (FBS), 1% penicillin-streptomycin. Cells were maintained at 37° C. and 5% CO2 with a relative humidity of 95%. HeLa cells were plated in 96-well plates at a density of 5000 per well and then left to attach for 24 h. Subsequently, the cells were treated with the polymers of various concentrations for the desired time followed by washing 3 times with PBS. Then CellTiter-Blue® at 10% (v/v) in complete media was added to each well and incubated for 2 h to allow the live cells to convert resazurin to fluorescent resorufin. The fluorescent signal (Excitation wavelength: 560 nm; Emission wavelength: 600 nm) was then analyzed by a plate reader. Three replicates were performed for each independent sample. 10% DMSO was used as a positive control and untreated cells in complete medium as a negative control. Viability is reported as a percentage of untreated cells.
In general terms: The colour change of resazurin is a common sign of viable cells or microbes.

T1 sequence (P00800 233-548): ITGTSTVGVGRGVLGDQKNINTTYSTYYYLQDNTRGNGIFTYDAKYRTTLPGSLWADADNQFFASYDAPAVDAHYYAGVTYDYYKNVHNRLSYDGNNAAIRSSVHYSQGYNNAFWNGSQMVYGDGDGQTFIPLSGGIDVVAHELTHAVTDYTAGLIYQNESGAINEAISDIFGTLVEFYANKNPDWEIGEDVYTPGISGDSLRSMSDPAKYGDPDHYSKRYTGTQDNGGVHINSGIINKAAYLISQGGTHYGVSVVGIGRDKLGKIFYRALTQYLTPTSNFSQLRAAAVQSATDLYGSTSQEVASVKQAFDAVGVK
Description for Zeta potential analysis: as §2

On to `CC(C)C[C@H](NC(=O)[C@H](CCCCN)NC(=O)[C@H](C)NC(=O)[C@H](CC(C)C)NC(=O)[C@H](CCCCN)NC(=O)[C@H](CCCCN)NC(=O)[C@H](C)NC(=O)[C@H](CC(C)C)NC(=O)[C@H](CCCCN)NC(=O)[C@H](C)NC(=O)[C@H](CC(C)C)NC(=O)[C@@H](N)CCCCN)C(=O)N[C@@H](C)C(=O)N[C@@H](CCCCN)C(N)=O` [KLA peptide, KLAKLAKKLAKLAK, reference compound], for which the “cytotoxicity to HeLa cells” value in the data set on HeLa cells [1] is reported as “did not exhibit cytotoxicity”. Besides, the metabolised at 1 h, 200 μM in the data set with trypsin [2] worked out at 100%.
In the case of `C=CC(=O)NCCCCCC(=O)N[C@@H](CCCCN)C(=O)N[C@@H](CC(C)C)C(=O)N[C@@H](C)C(=O)N[C@@H](CCCCN)C(=O)N[C@@H](CC(C)C)C(=O)N[C@@H](C)C(=O)N[C@@H](CCCCN)C(=O)N[C@@H](CCCCN)C(=O)N[C@@H](CC(C)C)C(=O)N[C@@H](C)C(=O)N[C@@H](CCCCN)C(=O)N[C@@H](CC(C)C)C(=O)N[C@@H](C)C(=O)N[C@@H](CCCCN)C(N)=O` [KLAAm], the “cytotoxicity to HeLa cells” value in the data set with HeLa cells [1] is listed as “did not exhibit cytotoxicity”. Besides, the “maximum concentration in water” value in data set [3] is recorded as “about 100 mM”. For the same compound, the pKa in data set [4] is 9. Besides, the metabolised at 1 h, 200 μM in the data set on trypsin [2] was found to be 100%.
As to GPLGLAGG, the cleaved bond entry in the data set with thermolysin [5] is listed as “glycine (G)-leucine (L)”.
Take KLAKLAKKLAKLAK: the fragment found result in the data set on trypsin [6] is recorded as “LAK”.
With “NP2: KLA peptide brush polymer nanoparticle: shell KLAAm 10, DMA 30; core DAAm 140, DMA 60 (KLAKLAKKLAKLAK)”, in data set [7], the Dh worked out at 62 nm and the Rh came out at 31 nm. The Zeta potential in the data set “Zeta potential analysis” came to 56 mV. For the same compound, the Rcore in [8] is recorded as 28 nm.
Turning to PMMA90-b-poly(PepAm9-co-DMA30) [P7], the “morphology change of micelles after treatment with thermolysin” value (from here on “morphology change of micelles”) at thermolysin [9] was “transition from spherical micelle to fused worm micelles”.
Consider PMMA90-b-poly(PepAm21-co-DMA63) [P8], for which, on thermolysin [9], the “morphology change of micelles” value is reported as “phase transition into a worm-like phase”. In addition, the “change in particle diameter with deactivated thermolysin” value on thermolysin [9] (thermolysin pretreated with ethylenediaminetetraacetic acid, same cleavage conditions, DLS) is “no change in diameter”. Also, the “hydrodynamic diameter / size by DLS” value in data set [7] was 28 nm. In data set [8] (dry-state TEM), the “diameter / average size by TEM” value turned out to be 24 nm.
As to PnBA200-b-poly(PepAm36-co-DMA123) [P9], the “morphology change of micelles” value at thermolysin [9] is “transition from spherical micelle to a mixture of micelles and fiber structure”.
With poly(KLAAm10), in the data set on HeLa cells [10], the “cellular uptake by flow cytometry” value is recorded as “clearly outperformed more sparsely grafted polypeptide brushes”.
Turning to poly(KLAAm25-co-DMA25), the “cellular uptake by flow cytometry” value in the data set on HeLa cells [10] is given as “clearly outperformed more sparsely grafted polypeptide brushes”.
poly(PepAm6-co-DMA7) [P1]: the “time within which thermolysin-induced peptide cleavage was complete” value at thermolysin [11] was not above 1 h.
Consider poly(PepAm21-co-DMA71) [P4], for which the “hydrodynamic diameter / size by DLS” value in data set [7] was less than 10 nm. On thermolysin [11], the “time within which thermolysin-induced peptide cleavage was complete” value is not above 1 h.
In [7], “poly[(KLAAm10-co-DMA10)-b-(DAAm140-co-DMA60)] (KLAKLAKKLAKLAK) [NP4, KLA peptide brush polymer nanoparticle]” came in with a Dh of 64 nm.
Regarding “poly[(KLAAm10-co-DMA10)-b-(DAAm280-co-DMA120)] (KLAKLAKKLAKLAK) [NP5, KLA peptide brush polymer nanoparticle]”, the Dh in data set [7] is 92 nm. The “red fluorescence of JC-1 J-aggregates (mitochondrial membrane potential)” value in data set [12] is reported as “almost no red emission”. In addition, in the data set on HeLa cells [13], the “cytotoxicity in HeLa cells” value is recorded as “dose-dependent cytotoxicity”. Further, the “toxicity compared between nanoparticles” value in the data set with HeLa cells [13] (HeLa cells) is “significantly higher than NP3”.
In the case of “poly[(KLAAm10-co-DMA30)-b-(DAAm70-co-DMA30)] (KLAKLAKKLAKLAK) [NP1, KLA peptide brush polymer nanoparticle]”, in data set [7], the Dh is given as 36 nm and the Rh was 18 nm. The compound also showed a Zeta potential in “Zeta potential analysis” of 47 mV. Moreover, the Rcore in data set [8] was 13 nm.
As for “poly[(KLAAm10-co-DMA30)-b-(DAAm280-co-DMA120)] (KLAKLAKKLAKLAK) [NP3, KLA peptide brush polymer nanoparticle]”, in [7], the Dh stood at 105 nm and the Rh was determined as 52 nm. In the data set “Zeta potential analysis”, this compound returned a Zeta potential of 48 mV. In data set [8], the Rcore is reported as 46 nm. The “cytotoxicity in HeLa cells” value with HeLa cells [13] is “dose-dependent cytotoxicity”.
